To fix the notation:
B1: KIF3A C-terminal region (ACT), residues 481 to 701 (domain or fragment, Mus musculus, UniProt P28741 481-701, looked up)
chain: VIVGGVDLLAKAEEQEKLLEESNMELEERRRRAEQLRKELEEKEQERLDIEEKYTSLQEEAQGKTKKLKKVWTMLMAAKSEMADLQQEHQREIEGLLENIRQLSRELRLQMLIIDNFIPQDYQEMIENYVHWNEDIGEWQLKCVAYTGNNMRKQTPVPDKKERDPFEVDLSHVYLAYTEESLRQSLMKLERPRTSKGKARPKMGRRKRSAKPETVIDSLLQ
notes: KIF3A, Mus musculus, NCBI NP_032469.2, C-terminal region residues 481 to 701 (ACT); also called KIF3A tail; source: E. coli BL21 (DE3), coexpressed with the KIF3B tail from pETDuet-1, purified within the reconstituted complex
B2: ARM domain of APC (APCARM), residues 338 to 1010 (domain or fragment, Mus musculus, UniProt Q61315 338-1010, looked up)
chain: SQDSCISMRQSGCLPLLIQLLHGNDKDSVLLGNSRGSKEARARASAALHNIIHSQPDDKRGRREIRVLHLLEQIRAYCETCWEWQEAHEQGMDQDKNPMPAPVEHQICPAVCVLMKLSFDEEHRHAMNELGGLQAIAELLQVDCEMYGLTNDHYSVTLRRYAGMALTNLTFGDVANKATLCSMKGCMRALVAQLKSESEDLQQVIASVLRNLSWRADVNSKKTLREVGSVKALMECALEVKKESTLKSVLSALWNLSAHCTENKADICAVDGALAFLVGTLTYRSQTNTLAIIESGGGILRNVSSLIATNEDHRQILRENNCLQTLLQHLKSHSLTIVSNACGTLWNLSARNPKDQEALWDMGAVSMLKNLIHSKHKMIAMGSAAALRNLMANRPAKYKDANIMSPGSSLPSLHVRKQKALEAELDAQHLSETFDNIDNLSPKASHRSKQRHKQNLYGDYAFDANRHDDSRSDNFNTGNMTVLSPYLNTTVLPSSSSSRGSLDSSRSEKDRSLERERGIGLSAYHPTTENAGTSSKRGLQITTTAAQIAKVMEEVSAIHTSQDDRSSASTTEFHCVADDRSAARRSSASHTHSNTYNFTKSENSNRTCSMPYAKVEYKRSSNDSLNSVTSSDGYGKRGQMKPSVESYSEDDESKFCSYGQYPADLAHKIHSAN
notes: adenomatous polyposis coli (APC), Mus musculus, NCBI AAB59632.1, ARM domain residues 338 to 1010, without expression tags; also called APC ARM domain; source: E. coli BL21 (DE3), purified; E. coli lysate in the pull-down

Holding throughout (details): both partners purified
Test [1] concerns the target T1, KIF3B C-terminal region (BCT), residues 475 to 747 (Mus musculus, UniProt Q61771 475-747).
T1 construct: KIF3B, Mus musculus, NCBI NP_032470.3, C-terminal region residues 475 to 747 (BCT), without expression tags; residues 580 to 675 are resolved; also called KIF3B tail; source: E. coli BL21 (DE3), coexpressed with the KIF3A tail from pETDuet-1, purified within the reconstituted complex
T1 sequence (looked up): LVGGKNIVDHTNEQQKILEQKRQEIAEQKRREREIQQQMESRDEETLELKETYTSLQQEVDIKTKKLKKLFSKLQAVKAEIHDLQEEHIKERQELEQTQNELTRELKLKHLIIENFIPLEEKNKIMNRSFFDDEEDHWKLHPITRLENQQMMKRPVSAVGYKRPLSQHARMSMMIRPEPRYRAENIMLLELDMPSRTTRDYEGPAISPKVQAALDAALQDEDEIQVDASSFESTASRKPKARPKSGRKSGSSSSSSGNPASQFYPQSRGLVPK
Description: cryo-EM structure; ABK complex (KIF3A 481-701, KIF3B 475-747, KAP3 1-693), 0.75 mg/ml, single-particle, two maps.

Test [2] addresses B2. Description: cryo-EM structure; ABK-APCARM complex, 0.75 mg/ml and 0.375 mg/ml (tilted stage 30° and 40°), single-particle, merged datasets.
In test [3] the target is T2, KIF3A/B/KAP3 cargo-binding domain complex (ABK), wild type (Mus musculus, UniProt P28741 481-701; Q61771 475-747; P70188-1 1-693).
T2 construct: KIF3A, Mus musculus, NCBI NP_032469.2, C-terminal region residues 481 to 701 (ACT); KIF3B, Mus musculus, NCBI NP_032470.3, C-terminal region residues 475 to 747 (BCT); KAP3A, Mus musculus, NCBI NP_001292572.1, residues 1 to 693; The His tag is named on the complexes of the SPR experiment; also called ABK (WT); KIF3A/B tail/KAP3 complex; source: E. coli BL21 (DE3), reconstituted and purified (size …)
Description: SPR; Biacore T200; APCARM immobilised on CM5 chip at around 200 RU by amine coupling; kinesin-2 complexes injected at 6.25 to 50 nM, 30 μl/min, 15°C; 20 mM Hepes pH 8.0, 150 mM NaCl, 1 mM dithiothreitol, 0.005% Tween 20; KD from Scatchard plot analysis.

Drawing on publication PMC12551710, “The hook-like adaptor and cargo-binding (HAC) domain in the kinesin-2 tail enables adaptor assembly and cargo recognition” (Science Advances, 2025), this text covers binding result and Kd for 2 molecules.

T2 sequence (P70188 1-693, one chain of several): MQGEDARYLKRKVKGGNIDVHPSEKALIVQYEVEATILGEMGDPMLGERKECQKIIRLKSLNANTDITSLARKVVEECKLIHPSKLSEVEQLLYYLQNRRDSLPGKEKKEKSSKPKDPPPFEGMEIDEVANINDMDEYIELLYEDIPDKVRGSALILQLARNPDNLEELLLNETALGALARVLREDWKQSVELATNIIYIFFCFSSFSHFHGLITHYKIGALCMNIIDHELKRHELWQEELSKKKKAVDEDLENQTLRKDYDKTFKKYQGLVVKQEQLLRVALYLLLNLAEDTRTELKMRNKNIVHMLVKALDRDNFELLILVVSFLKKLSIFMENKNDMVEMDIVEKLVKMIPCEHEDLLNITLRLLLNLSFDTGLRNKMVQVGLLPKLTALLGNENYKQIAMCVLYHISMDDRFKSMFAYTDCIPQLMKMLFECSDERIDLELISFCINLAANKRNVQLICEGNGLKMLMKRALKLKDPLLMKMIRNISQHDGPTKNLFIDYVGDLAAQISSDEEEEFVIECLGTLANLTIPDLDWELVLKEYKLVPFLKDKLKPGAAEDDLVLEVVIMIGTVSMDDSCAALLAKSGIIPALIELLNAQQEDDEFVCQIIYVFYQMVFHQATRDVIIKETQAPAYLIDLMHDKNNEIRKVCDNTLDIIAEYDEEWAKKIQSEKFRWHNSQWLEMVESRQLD

As to B1, the binding result in test [1] and in test [2] was “binds” in each case.

As to B2, the Kd (in general, the equilibrium constant for the complex coming apart) in test [3] was found to be 34.7 ± 0.6 nM.
